# Reference: the DeepSol protein solubility set
# Test: soluble on expression in E. coli; label from the status in PepcDB or PDB records
row,Sequence,soluble on expression in E. coli
1,MGSDKIHHHHHHMAKFDNHPTVRWWREQSTNNPKTSTVALNSDSLRTLCLDAGADDVGFVEIYRPAIADQHAEILAVFPPTKTLISFVCCMNRESVRTPARSIANLEFHANYDHADEVARNLVKAFAQIGVRALNPSVAFPMEMDRYPDKKAWIISHKPVAVEAGLGHIGIHRNVIHPKFGNFIALGTVLIDTEVTEYAHPINYNPCIECKLCVAACPVGAIGADGSFSFSACYTHNYREFMGGFTDWTETIADSKSASDYRKKVSASESASMWQSLSFKPNYKAAYCIAACPAGEDVIAPFLSDRKAFIKDVVKPLQDKTETIYVVPGSDAENYVVKHFPNKTVKLVSSGIRPQSIQGFLFGLPLLFQRNQSEGLSAIYHFTFTGSESRRATVTIQNKMVRVQEGHLGKANISVTADSKTWLGFLGKEQNLIWALLRCKIRVSGSLKLLQAFGKCFPTCNIH,not soluble
2,MSVLDLVALSEGMTAGEAIAHSVRAAQIAEEHNYARFWVAEHHNSEGLASSATTLLMGHIAGHTSRIRVGSGGIMMPNHSALHVAEELGTLEAIYPGRIEAGLGRAPGTDPMTARELGRASSLVDDVLSTIVSLQNYLDTPEERPNIIAHPGINSRVPLFMLGSSLNGAAMAAKLDLPFAFASHFAPFQMGPAIASYRELAANPYVMAAANVLVCDTEEEAEFQISTLHQMFAGIVTNSRGKLAPPVRNLKDKLDPMIWKHIEDSLEMTFIGTAESVVLQLQEFADRYKLDEIITVTYSYDPEVRFRSIAALGT,not soluble
3,MTTQQKKSSTRQGFKTGESIVYPAHGVGQIVAIEEQEVAGMKLELFVIDFEKDKMRLKVPVAKAVGIGMRKLSETDFVDRALKVVQGKARVKRTMWSRRAQEYDAKINSGDLISIAEVVRDLYRAENQPEQSYSERQLYEAALDRMAREIAAVNRMSETEAVRLVEANLNKGPKRGKAIEEDDAQDEAA,not soluble
4,MGSDKIHHHHHHPAAVKKIIETGQTDNRVMHQLDILTNRFGGRVIGSDAYENAAEWMMREYKRWGIDVRLEEAGELPVGFNRGPWFGRLIGGDQAMDLHFVTPSYTSGTKGLQRGHVLIEPRTQEELDRMKHQLKGAWVLISGENVGWPVDRSAKGDSLRAAIKAENIEIEKQNAALMEENWSKGTKHAMKPLREMPGLFYKEMCEAGALGFIQSAPVPLRALYDRALLNDPHTTFDNLPEVCDIKLDEHQYKIIKQMVKERRNFWLEFDIRNHFKLGPVKYHNVVASIKGTKYPDEYVIISGHLDSYDVATGGIDCGTGIGPMMEAARMIALSGAKPKRTILFVAFAGEEFGLLGAKAYVKTHAKELGKIANLFNRDGGPTPPVGISVPQAMYDDFVEVCKPVKEIRADYPFEVKVAKPFKRPTQSGGTDASVFAVEGVPTFGFNTQDIKGYNFSYGEIWHTERDLYTKNIPEYQEHAATVTAVVALGIANLSKQLSREGMHKK,not soluble
5,LNSPMITIVGTRTMTNYGKKILEEFVPKIIDSGIAVVSGLAKGIDAYAHQLALEKQGTAIAVIGNGTNISYPAENQSIQKRIISDGLLLSEYFPKSRPKQYHFPARNRILAGLTSATLVVEAKERSGSLITAAYATQENRNVLAIPGDLNRNNSNGTNQLIADGAKAVLKIDDILNE,not soluble
6,MRNGISPIIIDNTNLHAWEMKPYAVMALENNYEVIFREPDTRWKFNVQELARRNIHGVPKEKIQRMKERYEHNVTFHSVLHAEKPSRANRNQGRNSEPSSGSGYWNTYTELPNRRANGLYSNEGYRRGGHHQGY,not soluble
7,MGSSHHHHHHSSGLVPRGSHMVNKRMSMVVSGLTPEEFMLVYKFARKHHITLTNLITEETTHVVMKTDAEFVCERTLKYFLGIAGGKWVVSYFWVTQSIKERKMLNEHDFEVRGDVVNGRNHQGPKRARESQDRKIFRGLEICCYGPFTNMPTDQLEWMVQLCGASVVKELSSFTLGTGVHPIVVVQPDAWTEDNGFHAIGQMCEAPVVTREWVLDSVALYQCQELDTYLIPQIP,soluble
8,ASPIGEGTFDDGPEGWVAYGTDGPLDTSTGALCVAVPAGSAQYGVGVVLNGVAIEEGTTYTLRYTATASTDVTVRALVGQNGAPYGTVLDTSPALTSEPRQVTETFTASATYPATPAADDPEGQIAFQLGGFSADAWTLCLDDVALDSEVEL,soluble
9,MGSRDDEYDYLFKVVLIGDSGVGKSNLLSRFTRNEFNLESKSTIGVEFATRSISVEGKTVKAQIWDTAGQERYRAITSAYYRGAVGALLVYDIAKHVTYENVERWLKELRDHADQNIVIMLVGNKSDLRHLRAVPTDEAKIYAERNQLSFIETSALDSTNVEAAFTNILTEIYKSVSNKHVGTDRQGYGGGSGTIIPSPASDPPKKQCCIP,not soluble
10,MGSDKIHHHHHHMYKMTDNELTQMGAVITTREIQQEPELWLETFKIYQEKKQAIDAFLGKIESEFNEPVRVVFTGAGSSAYVGDTAMPYLTENGDRNHFRFEAIDTTKIVSTPKQYLEKDTPTILVSFARSGNSPESVATVDIAEKYVKHLYQITITCAPEGKLALHAQEDDKNLVLMQPARSNDKGFAMTGSFSCMLLTTLLVFDAQHSDEQKETYVNAISKMGHEVIDRVDDIQKLVDTDFERIVYLGSGALGGLTREAQLKVLELTAGQKVTVFDTSMGFRHGPKSFVNSKTLLFDFVSNNAYTRQYDVDILEEVAGDEIAPVVMGIGVQSAHNFTGSNFNFANGDDSIPDGYMAFPDVMFAQTISLLSSIKVKNTPDTPSATGTVNRVVKGVTIHDFEG,not soluble
11,MALEFTTLPQLYAHDYDTVIDVRSPAEFAEDHLPGAINLPVLDNEERARVGTIYKQQSPFLARKLGAALVFRNAASHVEQSLSHHEGHWRPLVYCWRGGQRSGSFTWMLQQIGWRAEVVSGGYRTYRRLVNRYLYEDPLPHRLVALDGFTGTAKTEILARLPALGVQMLDLEALANHRGSLLGARPGGQPEQKAFESALAAALCRLDPTRPVVVEAESSRIGERILPPSLWAALCAAPRIEIEAPVAARSAYLTAAYDDILSDAETLTARLDPLRYHRGHAVVEGWLALVAAGDKHGVTRALMEQHYDPAYRKSRASHAVQVAARLRSDTLDHAGIDTLTAQVAAVLKAL,not soluble
12,KGNTFLWLDDILYCERVDGLVFAYTKNKVYQIFHSLRDLEASYYRLGYVRCSKSMIVNIYKIHYFNSEPYGRIRATMENKEEIIISRKYANRIRTILQ,not soluble
13,MCRLAVFALLAVAAVSVYGQPAGGQDVPPFLRNATPAQLQSFQQLIQANGHLTETALDGKVQAWVNQQGGKVAADWADFQKFIKGQQGQAEAAHQAAVSNFSPAAKKADADLTAISNDSSLSVQAKGQKIQAYLNSLPANVKAELEKAQGQ,soluble
14,MSGSVSGCGSGGCSIVWFRRDLRVEDNPALAAAVRAGPVIALFVWAPEEEGHYHPGRVSRWWLKNSLAQLDSSLRSLGTCLITKRSTDSVASLLDVVKSTGASQIFFNHLYDPLSLVRDHRAKDVLTAQGIAVRSFNADLLYEPWEVTDELGRPFSMFAAFWERCLSMPYDPESPLLPPKKIISGDVSKCVADPLVFEDDSEKGSNALLARAWSPGWSNGDKALTTFINGPLLEYSKNRRKADSATTSFLSPHLHFGEVSVRKVFHLVRIKQVAWANEGNEAGEESVNLFLKSIGLREYSRYISFNHPYSHERPLLGHLKFFPWAVDENYFKAWRQGRTGYPLVDAGMRELWATGWLHDRIRVVVSSFFVKVLQLPWRWGMKYFWDTLLDADLESDALGWQYITGTLPDSREFDRIDNPQFEGYKFDPNGEYVRRWLPELSRLPTDWIHHPWNAPESVLQAAGIELGSNYPLPIVGLDEAKARLHEALSQMWQLEAASRAAIENGSEEG,soluble
15,TVKSFVMRAGRMTEGQQRGLDLGWPKFGLELSDEVQDFDAIFGRQAPRTFEIGFGMGHSTLEMAAAAPDIDFIGVEVHKPGVGALLNGLLTQGLGNVRVYSCDALEVLRHCVADASLDRLLLFFPDPWHKKRHHKRRIVQPEFAELVRRKLKVGGVLHMATDWEPYAEHMLDVMSAAPGYRNQAEDGRFVPRPQERPVTKFERRGERLGHGVWDLKFER,not soluble
16,MGSDKIHHHHHHMFSQHSFDFLNSLAVNNDREWFKTNQQQYEDQVRTPALQFIEAMQGPILGLSPRFTAVAKKVGGSLMRPQRDSRFSKDKTPYKTNVGIQFKHFQAKDVHAPGFYVHIANDECFIAAGIWHPESKDLNAIRHCIDENPNAYQKALTQLSQAGFELTGDSLIRPPRGFDKHHPMIDELRRKDFIAIKPISSEQVCQADFIEFCTQEYQHTRALMAYLCFALDLDF,not soluble
17,MAHHHHHHMENNNHGCNMHDDNFDLLMKKICNELKKGDKNKNGLIMYNTFIDVLDLFQIEYGSSIIDYLMKHCVVTEDGFVNYKNLWLIHDPSKTMRNNSESVEESINPKFMDIQDRYEDIDKYTQEKNEIIRKLYSQWDKCLLRDDEFKAKLINGNIDITPEFERSLYLYGPSRSLSFANVMKTLYINDSKNRKNRNNFVSKIKDEKWRKLNIDENEQQCFQDIHRNPIAWEGSNVTDADNLIQNVELISNYLRGEENVNMRKEEFISHDFFNNTVKNLIKNYISNKISESEFYLCLNKLNISVTPQLNNLIKCHELDSNGKFKDFATTINRCIPKNLLHSLQRRVQLYGAQKNDKDSKLNFSYNNCCCDRLCPNVTDDNPYSNENIDKH,not soluble
18,MPILQELRLGKRISRDISLADLYQEWIELKILPSSRSEETKKKYLLRKNTIERLFGNKKVTQIRASEYQRIMNKYGQTVGRNFLGRLNTGIHQSIQMAIADKVLIDDFTQHVELFSSKLEHHHHHH,soluble
19,MSSLHLDALHWSPDASTELLRGVHLEVPAGSFVGLIGPNGSGKTSLLRCAFRYARPQRGRVVLDGDDLWRQPPRWAARRIAVVLQEFPEDFGLAVEDVVAMGRTPHKGLFDGHGADDRQRVRQALLQVGLEGRAASPFASLSGGEKQRALLARALVQEPRLLILDEPTNHLDPRYQLELLRLLRSLGLSTLASFHDLNLAAAFCDRLYVLDGGRIVAQGTPTEVLDADLLWRVFGVRALVDRHPLADHPR,not soluble
20,MIPLMHDFEGETVLVVGGGSVGARKARTFATEASVVVLSPEFGDRTFADAEKVRAAPTPEDATDWVERTDPALVVAATDDSDLNGAFSTAAAEHGALVNRTDDHGDQSFGNIVVPATVRDDPVTLAIATGGRAPALSKHLRERFEDEFGNAGLMADLVGDLREDLRDRGVPPAKRRDAVRFVVRSREVWKALDSGRSKGEQVARDVIGELPGDQT,not soluble
21,SASERIIEKTPENSKFHKHQQKNYPLMSILKFHCRLLRCVSRCFTGITISYPATKHGYTKFEKLEDPLTGYTNMKRTIILDLDETLVHATTHLPGVKHDFMVMVKMEREIMPIFVVKRPGVTEFLERLGENYKVVVFTAGLEEYASQVLDKLDKNGVISQRLYRDSCTEVNGKYVKDLSLVVGKDLRSALIVDDNPSSYSLQPENGVPIKAFVDDLKDQELLNLVEFLESCYAYEDMRDAVTDLLAN,soluble
22,MQKDYQKLIVYLCDFLEKEVQKRGFKKVVYGLSGGLDSAVVGVLCQKVFKENAHALLMPSSVSMPENKTDALNLCEKFSIPYTEYSIAPYDAIFSSHFKDASLTRKGNFCARLRMAFLYDYSLKSDSLVIGTSNKSERMLGYGTLFGDLACAINPIGELFKTEVYELARRLNIPKKILNKPPSADLFVGQSDEKDLGYPYSVIDPLLKDIEALFQTKPIDTETLAQLGYDEILVKNITSRIQKNAFKLELPAIAKRFNPELEHHHHHH,soluble
23,MAHHHHHHMLLRASASSTLRTRGASCCSGACTGLYGSGSLTVQQRFIEYWGSGVTGRTQPYAQGDMIPRVDNMRYPVNKATSAAASLTGNQSSIAYDTSSIFQVEGFSPLEKEHYQSLRGSTRHKVESLPPHIGKDVMVLLKNMSEEGLLEEHWWARVVKDFPSMKTPCTAEFKSAWEKFYTEASGVADDNEAVKAISRPFLQTQMQKNYIAYAMVWRVAERLCEAFDAVPHVTVYERRGGRLVVERVTKLMLDTIADEPWAHQETTSPLHVDISNFRAWHEAGYW,not soluble
